The text below walks through data of paper PMC6885550 (Journal of molecular biology, 2019).

What is called stoichiometry N is the number of molecules, sites or subunits per partner or assembly.

No end group written: not given here. A value given as a limit tells only on which side of the number the result lay.

First the molecules themselves.
B1: YFP-endoregulin (ELN) (natural protein, UniProt P0DI80 1-62, looked up)
chain: MDQLVFKETIWNDAFWQNPWDQGGLAVIILFITAVLLLILFAIVFGLLTSTENTQCEAGEEE
B2: YFP-phospholamban (PLB) (natural protein, UniProt P26678 1-52, looked up)
chain: {YFP}-MEKVQYLTRSAIRRASTIEMPQQARQKLQNLFINFCLILICLLLICIIVMLL
modifications: cysteine pairing not given here
B3: YFP-ALN (another-regulin) (natural protein, UniProt Q8WVX3 1-66, looked up)
chain: MEVDAPGVDGRDGLRERRGFSEGGRQNFDVRPQSGANGLPKHSYWLDLWLFILFDVVVFLFVYFLP

One data set deals with the molecule itself. Nature of the data set: FRET or BRET.
As to B1, the “stoichiometry N” value is 2.

On to B2, for which the “stoichiometry N” value was determined as 2.

In the case of MTGKNWILISTTTPKSLEDEIVGRLLKILFVIFVDLISIIYVVITS (natural protein, UniProt P0DMT0 1-46, looked up) [YFP-myoregulin (MLN)], the “stoichiometry N” value is 2.

Regarding B3, the “stoichiometry N” value was found to be 2.

A further data set deals with the molecule itself. Nature of the data set: FRET or BRET. This is another data set of the same source. A general note: In BRET a luciferase serves as donor, and the signal depends on an acceptor being close.
B1: the “stoichiometry N” value is over 2.

For the protein B2, the “stoichiometry N” value was over 2.

Take MTGKNWILISTTTPKSLEDEIVGRLLKILFVIFVDLISIIYVVITS (natural protein, UniProt P0DMT0 1-46, looked up) [YFP-myoregulin (MLN)]: the “stoichiometry N” value is over 2.

Turning to B3, the “stoichiometry N” value is over 2.
